Measured values from patent publication US20200325187A1 (Genentech, published 2020).
Where two headings read alike, the source gives them in different places.

What was measured:
hVEGF-A (8-109) [1] = biological target: T1, hVEGF-A (8-109) (human, UniProt P15692 214-315); test: SPR
T1 sequence (looked up): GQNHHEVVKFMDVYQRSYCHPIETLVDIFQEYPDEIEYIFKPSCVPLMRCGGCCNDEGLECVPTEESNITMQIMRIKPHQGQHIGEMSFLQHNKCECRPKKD
Protocol: (§1) Depending on the format of the assay either a streptavidin sensor (SA) or a dextran-coated (CM5) sensor was utilized as described below.
(§2) Reaction was then quenched by addition of 10 molar excess of Glycine pH 8.0 and the sample was buffer exchanged into PBS using an Amicon 0.5 mL 3000 MWCO ultra-centrifugal filters (EMD Millipore). The biotinylation state of the protein was verified by LC-MS analysis. Biotinylated VEGF-A was then captured on the surface until a resonance unit (RU) signal of about ˜400. For immobilization of VEGF-A on CM5 sensor, the surface was first activated with a mixture of N-ethyl-N′-(3-dimethylaminopropyl)carbodiimide hydrochloride and N-hydroxysuccinimide (EDC/NHS) according to the supplier instructions. VEGF-A was then diluted into coupling buffer (0.1 M Acetate Buffer, pH 5.0) and injected until the signal reached about ˜400 RU followed by a wash with 1 M ethanolamine pH 8.0 to quench remaining activated sites.

hVEGF-A Q89A = biological target: T2, hVEGF-A Q89A (human, UniProt P15692-4 34-135, Q89A); test: SPR
T2 construct: position probably counted on the mature protein
T2 sequence (looked up): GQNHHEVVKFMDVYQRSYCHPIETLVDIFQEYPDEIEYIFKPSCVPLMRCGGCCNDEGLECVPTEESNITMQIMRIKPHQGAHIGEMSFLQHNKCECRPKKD
Protocol: as §1, §2

hVEGF-A [2] = biological target: T3, hVEGF-A (human, UniProt P15692-4 27-191, limits assumed); test: SPR
T3 construct: also called human VEGF-A; WT
Protocol: as §1, §2

hVEGF-A Y21A = biological target: T4, hVEGF-A Y21A (human, UniProt P15692-4 34-135, Y21A); test: SPR
T4 construct: position probably counted on the mature protein
T4 sequence (looked up): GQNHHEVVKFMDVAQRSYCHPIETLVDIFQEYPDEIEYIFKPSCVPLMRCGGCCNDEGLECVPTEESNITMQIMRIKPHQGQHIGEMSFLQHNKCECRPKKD
Protocol: as §1, §2

hVEGF-A K48A = biological target: T5, hVEGF-A K48A (human, UniProt P15692-4 34-135, K48A); test: SPR
T5 construct: position probably counted on the mature protein
T5 sequence (looked up): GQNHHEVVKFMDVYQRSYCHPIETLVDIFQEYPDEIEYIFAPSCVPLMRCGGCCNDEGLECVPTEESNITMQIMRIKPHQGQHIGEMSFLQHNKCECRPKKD
Protocol: as §1, §2

hVEGF-A (8-109) [3] = biological target: T1, hVEGF-A (8-109); test: SPR; remark: listed apart in the source
Protocol: as §1, §2

human VEGF-A 165 = human VEGF-A 165 (human, UniProt P15692-4 27-191); test: SPR
Protocol: as §1, §2

mouse VEGF-A 164 = biological target: T6, mouse VEGF-A 164 (mouse, UniProt Q00731-2 27-190); test: SPR
T6 construct: also called mouse 164
T6 sequence (looked up): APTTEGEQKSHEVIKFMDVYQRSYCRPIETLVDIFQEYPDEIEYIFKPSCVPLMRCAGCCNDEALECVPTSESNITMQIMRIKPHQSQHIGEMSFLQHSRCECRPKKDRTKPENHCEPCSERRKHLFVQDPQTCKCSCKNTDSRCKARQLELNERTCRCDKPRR
Protocol: as §1, §2

rat VEGF-A = biological target: T7, rat VEGF-A (rat, UniProt P16612-2 27-190, limits assumed); test: SPR
T7 construct: also called rVEGF
T7 sequence (looked up): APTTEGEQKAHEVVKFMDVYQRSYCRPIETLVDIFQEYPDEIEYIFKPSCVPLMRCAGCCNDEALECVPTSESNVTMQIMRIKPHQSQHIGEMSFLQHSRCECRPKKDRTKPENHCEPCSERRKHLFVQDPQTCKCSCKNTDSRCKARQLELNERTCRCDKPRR
Protocol: as §1, §2

rabbit VEGF-A = biological target: T8, rabbit VEGF-A (rabbit, UniProt G1T1L9 1-398); test: SPR
T8 sequence: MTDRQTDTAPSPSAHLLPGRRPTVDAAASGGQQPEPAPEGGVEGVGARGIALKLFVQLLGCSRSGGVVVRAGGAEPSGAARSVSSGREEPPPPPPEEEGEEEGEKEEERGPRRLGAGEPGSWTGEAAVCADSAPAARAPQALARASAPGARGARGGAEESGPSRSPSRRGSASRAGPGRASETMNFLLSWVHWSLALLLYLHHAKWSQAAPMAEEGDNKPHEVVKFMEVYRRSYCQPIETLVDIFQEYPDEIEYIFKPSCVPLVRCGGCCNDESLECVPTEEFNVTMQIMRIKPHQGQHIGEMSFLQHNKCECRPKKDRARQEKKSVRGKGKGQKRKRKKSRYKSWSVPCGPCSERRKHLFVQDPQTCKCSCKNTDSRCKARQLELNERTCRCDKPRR
Protocol: as §1, §2

hVEGF-A (8-109) [4] = biological target: T1, hVEGF-A (8-109); test: spot phage ELISA
Method in brief: (§3)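 Phage clones from four selection rounds were grown overnight at 37 °C with M13-KO7 helper phage. Bound phage was detected with anti-M13-HRP and TMB, with binding to BSA alone run in parallel as background.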

hVEGF-A [5] = biological target: T3, hVEGF-A; test: cell-based or functional assay
hVEGF-A [6] = biological target: T3, hVEGF-A; test: cell-based or functional assay; remark: listed apart in the source
hVEGF-A [7] = biological target: T3, hVEGF-A; test: KDR-VEGF competition ELISA
hVEGF-A [8] = biological target: T3, hVEGF-A; test: phage competition ELISA, soluble CKP
hVEGF-A (8-109) [9] = biological target: T1, hVEGF-A (8-109); test: spot phage ELISA; remark: listed apart in the source
Method in brief: as §3

hVEGF-A [10] = biological target: T3, hVEGF-A; test: cell-based or functional assay; remark: listed apart in the source
Flt-4 = biological target: T9, Flt-4 (human, UniProt P35916 25-776, limits assumed); test: plate ELISA, growth factor coated
T9 sequence (looked up): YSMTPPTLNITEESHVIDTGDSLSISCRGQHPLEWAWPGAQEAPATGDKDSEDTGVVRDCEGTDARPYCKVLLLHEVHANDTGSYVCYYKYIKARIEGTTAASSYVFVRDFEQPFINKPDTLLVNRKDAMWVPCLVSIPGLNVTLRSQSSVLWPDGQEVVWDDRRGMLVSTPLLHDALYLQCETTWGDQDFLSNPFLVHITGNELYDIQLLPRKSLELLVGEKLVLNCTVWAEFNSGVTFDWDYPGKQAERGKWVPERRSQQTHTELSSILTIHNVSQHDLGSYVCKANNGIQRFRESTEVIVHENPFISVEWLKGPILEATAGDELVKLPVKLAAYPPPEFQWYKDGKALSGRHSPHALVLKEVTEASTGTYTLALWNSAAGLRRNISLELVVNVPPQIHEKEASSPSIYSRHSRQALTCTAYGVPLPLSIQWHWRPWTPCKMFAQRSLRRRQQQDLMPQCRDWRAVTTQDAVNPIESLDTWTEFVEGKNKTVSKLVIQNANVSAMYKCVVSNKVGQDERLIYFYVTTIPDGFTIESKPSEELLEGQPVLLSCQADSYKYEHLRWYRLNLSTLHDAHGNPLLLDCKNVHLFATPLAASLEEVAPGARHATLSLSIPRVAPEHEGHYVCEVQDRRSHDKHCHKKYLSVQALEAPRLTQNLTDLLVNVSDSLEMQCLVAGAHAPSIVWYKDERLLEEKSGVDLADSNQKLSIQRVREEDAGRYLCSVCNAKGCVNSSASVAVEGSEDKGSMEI
Protocol: Binding specificity of each peptide was established by competition ELISA. […] After blocking with block buffer (PBS with 0.5% BSA and 0.05% TWEEN®20) for 2 hours at room temperature, the receptor-Fc fusions or biotinylated receptors were serially diluted using assay buffer (PBS with 0.5% BSA and 0.05% TWEEN®20) and incubated for 1 hour at room temperature. […] Competition ELISA was conducted in an identical fashion as described above except after blocking, a mixture of serially diluted peptide containing a constant concentration of receptor-Fc fusion or biotinylated receptor (concentration of receptor was set to EC₆₀) was added and incubated for 1 hour. All recombinant human proteins and antibodies were purchased from R &D Systems (Minneapolis, Minn.).

human VEGF-A 165, sequence (P15692 other isoform, or with tags, fused parts or gaps limits assumed): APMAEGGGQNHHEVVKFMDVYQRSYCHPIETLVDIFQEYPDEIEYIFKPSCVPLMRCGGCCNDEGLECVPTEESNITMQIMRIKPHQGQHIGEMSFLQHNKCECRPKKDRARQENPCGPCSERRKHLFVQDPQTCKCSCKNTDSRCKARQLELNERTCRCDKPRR
EETI-II, sequence (chain, as listed by the source): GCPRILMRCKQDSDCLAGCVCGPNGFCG

Row | Molecule | Kd (hVEGF-A Q89A) [µM] | Kd (hVEGF-A [2]) [µM] | Kd (hVEGF-A Y21A) [µM] | Kd (hVEGF-A K48A) [µM] | Kd (hVEGF-A (8-109) [3]) [µM] | Kd (human VEGF-A 165) [µM] | Kd (mouse VEGF-A 164) [µM] | Kd (rat VEGF-A) [µM] | Kd (rabbit VEGF-A) [µM] | Cellular IC50 (hVEGF-A [6]) [µM] | IC50 (hVEGF-A [7]) [µM] | also measured
1 | trypsin |  |  |  |  |  |  |  |  |  |  |  | trypsin protease activity, peptide substrate cleavage assay (EETI-II): Unlike EETI-II, ... do not inhibit trypsin protease activity
2 | GCDVMQPYWGCKQDSDCLAGCVCHWYNSCG (designed binder, also called EM63) [VEGF_CKP9.63] | 2 | 0.1 | 0.585 | 0.0284 | 0.281 | 0.382 | 0.289 | 0.524 | 0.311 | 0.14 | 0.0108 | Kd (hVEGF-A (8-109) [1]): 0.1 µM; ELISA (hVEGF-A (8-109) [4]): 2; S/N vs BSA (hVEGF-A (8-109) [4]): 29.7; Cellular IC50 (hVEGF-A [5]): 0.14 µM; IC50 (hVEGF-A [8]): 0.146 µM
3 | GCDVMQPYWGCGPDIDCLAGCVCHWYNSCG (designed binder, also called L2.9.63.12) [VEGF_CKP9.63.12] | 0.0365 | 0.00107 | 0.00984 | 0.00033 | 0.0032 | 0.00432 | 0.0131 | 0.00574 | 0.00254 | 0.00183 | 0.0007 | ELISA (hVEGF-A (8-109) [9]): 2.6; S/N vs BSA (hVEGF-A (8-109) [9]): 39.9; Cellular IC50 (hVEGF-A [10]): 0.00183 µM; FOLD [..] [..] TO VARIANT 9.54.90 (hVEGF-A [10]): 0.74 fold
4 | VEGF-D (ligand, human, UniProt O43915 93-201, looked up) FYDIETLKVIDEEWQRTQCSPRETCVEVASELGKSTNTFFKPPCVNVFRCGGCCNEESLICMNTSTSYISKQLFEISVPLTSVPELVPVKVANHTGCKCLPTAPRHPYS |  |  |  |  |  |  |  |  |  |  |  | binding result (Flt-4): binds
